The target of experiment [1] is EGFP-fused ACBD3 GOLD domain (human) (UniProt Q9H3P7). Put plainly: MST; EGFP-fused GOLD domain at a constant 150 nM, GB1-fused 3A cytoplasmic domain in a series of concentrations; 30 mM Tris pH 7.4, 150 mM NaCl, 3 mM β-mercaptoethanol; Monolith NT.115.
In experiment [2] the target is GB1-fused cytoplasmic domain of the enterovirus D68 3A protein, wild type (enterovirus D68). Put plainly: SEC.
Experiment [3] addresses GOLD-EVD68 3A fusion protein, wild type (human | enterovirus D68) (UniProt Q9H3P7). Put plainly: SEC. In general terms: Size exclusion chromatography separates by hydrodynamic size, large species first.
Experiment [4] shares this target. Put plainly: […]; 30 mM Tris pH 7.4, 150 mM NaCl, 1 mM TCEP; […].
Experiment [5] addresses GOLD-3A fusion protein LVVY mutant N-terminally fused to mAmetrine or mPlum (UniProt Q9H3P7). Put plainly: FRET by flow cytometry in HeLa cells (self-association of mAmetrine- and mPlum-fused GOLD-3A). To be noted: mean FRET signal at a fixed acceptor signal (dashed line in f, acceptor fluorescence 100 a.u.); three independent experiments; p-value = 0.004; parent: est. …; read off a plot. (In general: Flow cytometry measures light scatter and fluorescence of single cells or particles in a stream.)

The term Kd denotes the constant that tells how readily two partners part at equilibrium. A low value points to higher affinity. The term stoichiometry N denotes the number of molecules, sites or subunits per partner or assembly.

Substance “GB1-fused cytoplasmic domain of the enterovirus A71 3A protein (domain or fragment)” had a Kd in experiment [1] of 15000 nM.

“GB1-fused cytoplasmic domain of the enterovirus D68 3A protein, wild type (domain or fragment)” showed a stoichiometry N in experiment [2] of 2. In experiment [1], the dissociation constant (Kd) is 1000 nM.

Substance “GB1-fused cytoplasmic domain of the rhinovirus B14 3A protein (domain or fragment)” returned a Kd in experiment [1] of 1000 nM.

As to “GOLD-EVD68 3A fusion protein, wild type (from UniProt Q9H3P7)”, the stoichiometry N in experiment [3] and in experiment [4] was 2 in each case.

For the substance “wild-type GOLD-3A fusion protein N-terminally fused to mAmetrine or mPlum (from UniProt Q9H3P7) L25A; V29A; V34A; Y37A”, the response in experiment [5] came out at 3.9 a.u.

(Values after article PMC6695192.)
